{"source": "paper PMC11912399", "key": {"[1]": {"target": "CrImpαΔIBB (Chlamydomonas reinhardtii importin α IPA1, Cre04.g215850, lacking the autoinhibitory IBB domain) (Chlamydomonas reinhardtii)", "assay": "ELISA"}, "[2]": {"target": "CrImpαΔIBB (Chlamydomonas reinhardtii importin α IPA1, Cre04.g215850, lacking the autoinhibitory IBB domain) (Chlamydomonas reinhardtii)", "assay": "MST"}}}
{"substance": "DC Cas9 (Cas9 with the VirD2^O NLS fused to its C-terminus) (enzyme)", "values": [{"measurement": "Kd", "setting": "[1]", "result": 5.01, "unit": "nM"}]}
{"substance": "DN Cas9 (Cas9 with the VirD2^O NLS fused to its N-terminus) (enzyme)", "values": [{"measurement": "Kd", "setting": "[2]", "result": 4.48, "unit": "nM"}, {"measurement": "Kd", "setting": "[1]", "result": 4.79, "unit": "nM"}]}
{"substance": "D^K1AR2AN Cas9 (DN Cas9 with K1A and R2A in the VirD2^O NLS) (enzyme)", "values": [{"measurement": "Kd", "setting": "[1]", "result": 13.3, "unit": "nM"}]}
{"substance": "D^K1AR2AR15AN Cas9 (DN Cas9 with K1A, R2A and R15A in the VirD2^O NLS) (enzyme)", "values": [{"measurement": "Kd", "setting": "[1]", "result": 42.6, "unit": "nM"}]}
{"substance": "D^NopN Cas9 (Cas9 with the nopaline-type VirD2^N NLS fused to its N-terminus) (enzyme)", "values": [{"measurement": "Kd", "setting": "[1]", "result": 7.88, "unit": "nM"}]}
{"substance": "D^R15AN Cas9 (DN Cas9 with R15A in the VirD2^O NLS) (enzyme)", "values": [{"measurement": "Kd", "setting": "[1]", "result": 15.2, "unit": "nM"}]}
{"substance": "EC Cas9 (Cas9 with the VirE2^O NLS fused to its C-terminus) (enzyme)", "values": [{"measurement": "Kd", "setting": "[1]", "result": 6.9, "unit": "nM"}]}
{"substance": "EN Cas9 (Cas9 with the VirE2^O NLS fused to its N-terminus) (enzyme)", "values": [{"measurement": "Kd", "setting": "[1]", "result": 7.81, "unit": "nM"}]}
{"substance": "PN Cas9 (Cas9 with the putative endogenous CrPAP1 NLS fused to its N-terminus) (enzyme)", "values": [{"measurement": "Kd", "setting": "[1]", "result": 17.1, "unit": "nM"}]}
{"substance": "SC Cas9 (Cas9 with the SV40TAg NLS fused to its C-terminus) (enzyme)", "values": [{"measurement": "Kd", "setting": "[1]", "result": 9.21, "unit": "nM"}]}
{"substance": "SN Cas9 (Cas9 with the SV40TAg NLS fused to its N-terminus) (enzyme)", "values": [{"measurement": "Kd", "setting": "[2]", "result": 11.4, "unit": "nM"}, {"measurement": "Kd", "setting": "[1]", "result": 8.73, "unit": "nM"}]}
